Laboratory results: publication PMC12217528, “Structural basis of topoisomerase targeting by delafloxacin” (Nature Communications, 2025)

Molecular target: ParE30-ParC55 fusion protein (fused ParE-ParC cleavage core of S. pneumoniae topo IV) (Streptococcus pneumoniae)
Experiment: crystal structure; ParE30-ParC55 fusion protein (4.5 mg/ml) mixed with 18-mer V-site or E-site duplex DNA at 1:1.2 molar ratio, 2 mM delafloxacin, 10 mM MgCl2; sitting-drop vapour diffusion, 50 mM sodium cacodylate, 62.5 mM KCl, 7.5 mM MgCl2, 2.5% Tacsimate, 5.5–7% isopropanol, pH 6.5, 301 K; V18 with PEGylated graphene nucleant 2.0 Å, V18 and E18 without 2.4 Å

“ParE30-ParC55 fusion protein (fused ParE-ParC cleavage core of S. pneumoniae topo IV) (enzyme)” was tested, and the stoichiometry N was 2.
